Reference: patent US20090274682

Key:
[1] = molecular target: PP2A core enzyme variant involving truncation of the carboxy-terminus of the catalytic subunit (two C-terminal amino acids removed by chymotrypsin)
[2] = molecular target: PP2A core enzyme (AC heterodimer) involving the full-length A subunit
[3] = molecular target: PP2A core enzyme involving full-length Cα and AΔN, methylated by LCMT1
Chain of PP2A core enzyme involving full-length Cα and AΔN, methylated by LCMT1 (chain, as listed by the source mutant, chain 1 of 2): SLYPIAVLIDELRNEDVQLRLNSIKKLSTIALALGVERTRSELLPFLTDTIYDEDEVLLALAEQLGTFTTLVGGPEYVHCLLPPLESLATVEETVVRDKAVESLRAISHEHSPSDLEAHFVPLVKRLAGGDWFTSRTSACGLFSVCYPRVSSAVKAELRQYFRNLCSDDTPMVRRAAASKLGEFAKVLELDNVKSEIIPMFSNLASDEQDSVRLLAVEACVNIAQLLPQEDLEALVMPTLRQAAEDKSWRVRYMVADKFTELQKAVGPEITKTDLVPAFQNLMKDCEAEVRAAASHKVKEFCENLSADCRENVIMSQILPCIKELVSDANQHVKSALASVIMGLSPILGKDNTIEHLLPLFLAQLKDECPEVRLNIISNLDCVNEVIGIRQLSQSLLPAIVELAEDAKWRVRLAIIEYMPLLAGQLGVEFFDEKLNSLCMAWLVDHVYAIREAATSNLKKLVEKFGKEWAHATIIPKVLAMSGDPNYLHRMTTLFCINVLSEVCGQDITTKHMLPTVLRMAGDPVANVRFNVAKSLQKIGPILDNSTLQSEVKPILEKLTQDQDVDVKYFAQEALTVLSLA
Chain of PP2A core enzyme involving full-length Cα and AΔN, methylated by LCMT1 (chain, as listed by the source mutant, chain 2 of 2): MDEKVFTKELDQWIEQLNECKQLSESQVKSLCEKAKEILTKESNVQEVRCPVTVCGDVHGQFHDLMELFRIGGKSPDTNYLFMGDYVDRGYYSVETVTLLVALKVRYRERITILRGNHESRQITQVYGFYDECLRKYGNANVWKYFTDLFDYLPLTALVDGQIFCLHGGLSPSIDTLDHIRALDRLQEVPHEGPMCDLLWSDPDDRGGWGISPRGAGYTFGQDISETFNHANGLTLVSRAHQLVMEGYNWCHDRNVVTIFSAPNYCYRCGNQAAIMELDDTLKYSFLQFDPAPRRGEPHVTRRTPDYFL

Chain of PP2A core enzyme (AC heterodimer) involving the full-length A subunit (chain, as listed by the source, chain 1 of 2): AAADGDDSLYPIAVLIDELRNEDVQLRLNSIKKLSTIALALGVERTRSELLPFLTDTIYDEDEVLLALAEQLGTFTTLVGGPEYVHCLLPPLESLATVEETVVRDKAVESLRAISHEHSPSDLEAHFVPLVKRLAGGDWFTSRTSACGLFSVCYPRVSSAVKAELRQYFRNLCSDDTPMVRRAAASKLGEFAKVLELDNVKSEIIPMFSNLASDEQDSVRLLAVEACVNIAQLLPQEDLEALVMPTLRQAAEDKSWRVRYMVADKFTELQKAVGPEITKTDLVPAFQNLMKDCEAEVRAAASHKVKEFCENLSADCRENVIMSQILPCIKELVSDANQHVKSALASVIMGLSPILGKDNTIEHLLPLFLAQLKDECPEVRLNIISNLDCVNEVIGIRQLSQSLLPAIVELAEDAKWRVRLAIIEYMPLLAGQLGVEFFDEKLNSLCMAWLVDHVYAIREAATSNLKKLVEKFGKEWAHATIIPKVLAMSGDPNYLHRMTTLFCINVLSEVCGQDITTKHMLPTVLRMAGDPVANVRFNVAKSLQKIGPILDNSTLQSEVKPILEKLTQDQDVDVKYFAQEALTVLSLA
Chain of PP2A core enzyme variant involving truncation of the carboxy-terminus of the catalytic subunit (two C-terminal amino acids removed by chymotrypsin) (chain, as listed by the source mutant, chain 1 of 2): as the sequence (chain, as listed by the source mutant, chain 1 of 2) above
Chain of PP2A core enzyme variant involving truncation of the carboxy-terminus of the catalytic subunit (two C-terminal amino acids removed by chymotrypsin) (chain, as listed by the source mutant, chain 2 of 2): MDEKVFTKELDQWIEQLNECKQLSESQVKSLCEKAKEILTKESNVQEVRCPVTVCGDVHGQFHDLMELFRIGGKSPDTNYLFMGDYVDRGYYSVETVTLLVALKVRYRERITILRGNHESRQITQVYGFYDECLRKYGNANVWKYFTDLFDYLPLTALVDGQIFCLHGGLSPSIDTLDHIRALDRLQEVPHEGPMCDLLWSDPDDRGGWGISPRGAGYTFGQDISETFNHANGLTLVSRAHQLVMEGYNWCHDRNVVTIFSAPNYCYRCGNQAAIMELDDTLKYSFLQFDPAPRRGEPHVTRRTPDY

B1: Full-length PME-1 (1-386) (protein)
chain: MSALEKSMHLGRLPSRPPLPGSGGSQSGAKMRMGPGRKRDFSPVPWSQYFESMEDVEVENETGKDTFRVYKSGSEGPVLLLLHGGGHSALSWAVFTAAIISRVQCRIVALDLRSHGETKVKNPEDLSAETMAKDVGNVVEAMYGDLPPPIMLIGHSMGGAIAVHTASSNLVPSLLGLCMIDVVEGTAMDALNSMQNFLRGRPKTFKSLENAIEWSVKSGQIRNLESARVSMVGQVKQCEGITSPEGSKSIVEGIIEEEEEDEEGSESISKRKKEDDMETKKDHPYTWRIELAKTEKYWDGWFRGLSNLFLSCPIPKLLLLAGVDRLDKDLTIGQMQGKFQMQVLPQCGHAVHEDAPDKVAEAVATFLIRHRFAEPIGGFQCVFPGC
- methylesterase activity of PME-1 after pre-incubation with the PP2A variant and PMSF [1]: pre-incubation with the PP2A variant and PMSF led to marked reduction of PME-1-mediated methylesterase activity
- LCMT1-catalyzed methylation [2]: the stable complex between PP2A and PME-1 blocks LCMT1-catalyzed methylation (data not shown)
- phosphatase activity after incubation at 37° C. [2]: A prolonged incubation time was required for substantial loss of the phosphatase activity in vitro
- phosphatase activity towards phosphorylase a upon initial incubation [2]: The PP2A core enzyme, upon initial incubation with various concentrations of PME-1, exhibited full phosphatase activity towards the substrate phosphorylase a
- methylesterase activity of PME-1 [3]: The methylesterase activity of PME-1 on the PP2A core enzyme involving the AΔN variant was nearly identical to that on the PP2A core enzyme involving the full-length A subunit

B2: PME-1 M335D (protein)
chain: MSALEKSMHLGRLPSRPPLPGSGGSQSGAKMRMGPGRKRDFSPVPWSQYFESMEDVEVENETGKDTFRVYKSGSEGPVLLLLHGGGHSALSWAVFTAAIISRVQCRIVALDLRSHGETKVKNPEDLSAETMAKDVGNVVEAMYGDLPPPIMLIGHSMGGAIAVHTASSNLVPSLLGLCMIDVVEGTAMDALNSMQNFLRGRPKTFKSLENAIEWSVKSGQIRNLESARVSMVGQVKQCEGITSPEGSKSIVEGIIEEEEEDEEGSESISKRKKEDDMETKKDHPYTWRIELAKTEKYWDGWFRGLSNLFLSCPIPKLLLLAGVDRLDKDLTIGQDQGKFQMQVLPQCGHAVHEDAPDKVAEAVATFLIRHRFAEPIGGFQCVFPGC
- Mn2+ bound (ICP-MS) and phosphatase activity with or without manganese chloride [2]: mutation of Met335 to aspartate in PME-1 led to decreased ability to remove the metal ions, and the PP2A-PME-1-M335D complex became readily activated by manganese

B3: PME-1 R369D (protein)
chain: MSALEKSMHLGRLPSRPPLPGSGGSQSGAKMRMGPGRKRDFSPVPWSQYFESMEDVEVENETGKDTFRVYKSGSEGPVLLLLHGGGHSALSWAVFTAAIISRVQCRIVALDLRSHGETKVKNPEDLSAETMAKDVGNVVEAMYGDLPPPIMLIGHSMGGAIAVHTASSNLVPSLLGLCMIDVVEGTAMDALNSMQNFLRGRPKTFKSLENAIEWSVKSGQIRNLESARVSMVGQVKQCEGITSPEGSKSIVEGIIEEEEEDEEGSESISKRKKEDDMETKKDHPYTWRIELAKTEKYWDGWFRGLSNLFLSCPIPKLLLLAGVDRLDKDLTIGQMQGKFQMQVLPQCGHAVHEDAPDKVAEAVATFLIDHRFAEPIGGFQCVFPGC
- methylesterase activity [2]: R369D in PME-1 resulted in marked reduction of its methylesterase activity
